B1: Pyruvate dehydrogenase protein X component, mitochondrial, residues 181 to 227; numbered along this chain, O00330 (parent)
chain: RFRLSPAARNILEKHSLDASQGTATGPRGIFTKEDALKLVQLKQTGK

Variants of: B1
Experiment: abundance fitness (aPCA) (normalised: wild type 0, dead -1); higher = more abundant; growth selection in yeast, the domain comes from the species named
Conditions: Homo sapiens

Abundance fitness: each site, then its substitutions
A8: E -0.183; R -0.391; F -0.683; W -1.15; Q -0.601; V -0.639; H -0.564; N -0.817; L -1.02; I -1.07; T -0.387; C -0.999; M -0.29; Y -0.902
A19: Q -0.343; P 0.249; M -0.074; D -0.355; H -0.323; K -0.602; F -0.59; L -0.412; I -0.295; S -0.242; Y -0.236; T -0.379; R -0.362; V -0.227; W -0.362; G -0.136; C -0.186
K14: F -0.146; M -0.149; D -0.172; S -0.279; Y -0.3; N -0.05; G -0.142; P -0.055; H -0.164; W -0.474; E 0.19; C -0.306; R -0.293; T 0.049; Q 0; I -0.165; A 0.008
L17: P -0.07; G -0.575; M -0.134; N -0.687; Q -0.483; I -0.22; D -0.534; W -0.57; A -0.506; K -0.509; V -0.331; R -0.856; S -0.486; E -0.33; H -0.308; T -0.31; Y -0.691; C -0.244; F -0.635
A24: C -0.473; D -0.661
S5: V -0.621; R -0.862; N -0.327; I -0.135; T -0.032; C -0.608; A -0.257; G -0.564; M -0.036; W -1.01; E 0.081; K -0.61; Q -0.384; D -0.098; L -0.725; H -0.795
S16: F -0.416; N 0.018; L -0.667; T -0.109; Y -0.385; D 0.078; E 0.035; Q 0.069; W -0.699; P -0.281; I -0.894; C -0.215; A -0.186; K 0.061; V -0.613; G 0.244; M -0.708; H -0.026
H15: E -0.138; I -0.906; S -0.517; F -0.294; P -0.575; N 0.019; M -0.1; Q -0.341; D -0.283; V -0.506; T -0.361; R -0.985; L -0.813; Y -0.176; G -0.255; A -0.276; W -0.191; K -0.42
T23: Y -0.309; F -0.36; C -0.234; L -0.258; N -0.195; P -0.442; W -0.424; I -0.074; H -0.326; E 0.067; D -0.058; K -0.062; Q -0.24; S -0.138; M -0.231; V 0.006; R -0.237; G -0.326
Q21: N -0.516; S -0.158; E 0.041; G -0.101; F -0.493; K -0.339; W -0.223; Y -0.481; P -0.453; M -0.084; R -0.44; C -0.167; V -0.31; T -0.427; D -0.194; L -0.051
I11: N -0.194; A -0.356; P -0.383; T -0.532; W -0.786; H -0.369; M -0.52; L -0.316; Q -0.469; K -0.419; C -0.485; D -0.175; V -0.314; G -0.409; E -0.528; S -0.436; F -0.424; R -0.397
S20: Y -0.932; G -0.192; R -0.284; A -0.056; Q -0.242; V -0.369; D 0.087; I -0.655; K -0.108; C -0.305; T -0.109; F -0.545; M -0.18; P -0.257; L -0.345; W -0.788; E 0.034
L4: Y -0.131; N 0.049; T -0.204; Q -0.357; R -0.588; S -0.167; K -0.09; P -0.333; M -0.008
E13: W -0.841; N 0.1; A -0.255; F -0.612; T -0.428; K -0.097; P -0.564; M -0.661; I -0.224; H -0.3; D -0.079; Q -0.215; V -0.391; C -0.441; L -0.225; R -0.242; G -0.387; S -0.348
D18: P -0.815; E -0.815; S -0.393; M -0.394; A -0.591; T -0.256; G -0.598; I -0.336; F -0.92; R -0.707; K 0.086; Q -0.113; W -1.06; C -0.331; Y -0.605; V -0.625; N 0.028
P6: R 0.038; S 0.041; I -0.113; F -0.35; G -0.61; E 0.355; Q -0.08; Y -0.174; W -0.261; A 0.027; L -0.2; T -0.093; H -0.367; D -0.091; N -0.053; C -0.004; M -0.23; K 0.07
R9: C -0.924; N -0.092; W -0.668; I -0.137; V -0.206; E -0.21; M -0.251; A -0.135; K 0.1; G -0.152; S -0.272; D -0.262; Q -0.05; H -0.252; Y -0.495
G22: K -0.633; I -0.446; H -0.524; D -0.552; P -0.64; M -0.369; F -0.679; T -0.554; L -0.475; E -0.43; A -0.337; Q -0.479; V -0.378; Y -0.623; R -0.723; W -0.712; S -0.619; N -0.648; C -0.419
N10: T 0.002; P -0.163; L 0.064; M -0.052; Q 0.106; V -0.001; K -0.014; H -0.086; E 0.439; A 0.063; W -0.272; D 0.192; F 0.106; G -0.058; C -0.13; Y -0.192; R 0.024; S 0.003
A7: N -0.432; Q 0.062; K -0.187; P -0.697; H -0.605; W -0.98; I -0.263; T 0.01; D -0.211; S -0.078; M -0.396; R -0.222; G 0.06
L12: F -0.584; H -0.504; C -0.019; M -0.263; P -0.073; W -0.765; T -0.181; I -0.121; D 0.018; K -0.481; N -0.319; R -0.422; Q -0.199; G -0.332; S -0.361; A -0.317; Y -1.16

From the Human Domainome abundance scans (Beltran et al. 2025)
